Measured values from paper PMC6073470 (International Journal of Molecular Sciences, 2018).
Like-named read-outs stand apart in the source and are kept apart here.

T1: human small heat shock protein HspB6, wild type (human), O14558
T1 chain: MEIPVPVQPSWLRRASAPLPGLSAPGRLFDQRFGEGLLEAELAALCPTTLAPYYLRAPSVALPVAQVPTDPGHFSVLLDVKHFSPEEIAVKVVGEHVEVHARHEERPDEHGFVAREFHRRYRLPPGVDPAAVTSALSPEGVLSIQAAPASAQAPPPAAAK

T2: human small heat shock protein HspB8, wild type (human), Q9UJY1
T2 chain: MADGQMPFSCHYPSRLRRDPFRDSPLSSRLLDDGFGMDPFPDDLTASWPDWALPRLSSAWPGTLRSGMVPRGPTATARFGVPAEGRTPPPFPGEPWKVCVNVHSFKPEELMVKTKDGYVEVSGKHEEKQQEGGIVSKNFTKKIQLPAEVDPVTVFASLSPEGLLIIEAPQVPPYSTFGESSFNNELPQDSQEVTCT


Tests used:
[1] = molecular target: the molecule itself; experiment: SEC; Superdex 200 HR 10/30; 20 mM Tris/acetate pH 7.6, 150 mM NaCl, 0.1 mM EDTA, 0.1 mM PMSF, 15 mM beta-mercaptoethanol; 10-120 ug protein in 100 uL loaded; apparent mass from calibration, estimated number of subunits
[2] = molecular target: T1, human small heat shock protein HspB6, …; experiment: as above; settings: remark: other sources report otherwise
[3] = molecular target: T2, human small heat shock protein HspB8, …; experiment: SEC-SAXS; online SEC-SAXS, SWING beamline; Shodex KW404-4F; 20 mM HEPES, 150 mM NaCl, pH 7.4, 2.5 mM DTT; 5 mg/mL (230 uM) sample applied; mass from the volume of correlation; settings: remark: other sources report otherwise
[4] = molecular target: T2, human small heat shock protein HspB8, …; experiment: SEC; Superdex 200 HR 10/30; 20 mM Tris/acetate pH 7.6, 150 mM NaCl, 0.1 mM EDTA, 0.1 mM PMSF, 15 mM beta-mercaptoethanol; 10-120 ug protein in 100 uL loaded; apparent mass from calibration, estimated number of subunits; settings: remark: other sources report otherwise
[5] = molecular target: the molecule itself; experiment: as above; remark: listed apart in the source

Row | Binder | stoichiometry N [1] [monomers] | also measured
1 | human small heat shock protein HspB5 (alphaB-crystallin), wild type (natural protein, UniProt P02511 1-175, looked up, HspB5 (alphaB-crystallin), human; UniProt P02511; Expressed from pET23b; The printed monomeric mass (20.2 kDa) fits the whole protein; also called αB-crystallin; wild type HspB5; source: E. coli BL21(DE3)pLysS, purified (ammonium sulfate fractionation, HiTrap Q HP, Superdex-200 SEC)) MDIAIHHPWIRRPFFPFHSPSRLFDQFFGEHLLESDLFPTSTSLSPFYLRPPSFLRAPSWFDTGLSEMRLEKDRFSVNLDVKHFSPEELKVKVLGDVIEVHGKHEERQDEHGFISREFHRKYRIPADVDPLTITSSLSSDGVLTVNGPRKQVSGPERTIPITREEKPAVTAAPKK | ~27 | –
2 | R22A mutant of human HspB5 (natural protein, UniProt P02511 1-175, looked up, HspB5 (alphaB-crystallin), human; UniProt P02511; Arg22 of the RLFDQxFG motif replaced by Ala; Expressed from pET23b; also called R22A HspB5; source: E. coli BL21(DE3)pLysS, purified (ammonium sulfate fractionation, HiTrap Q HP, Superdex-200 SEC)) MDIAIHHPWIRRPFFPFHSPSALFDQFFGEHLLESDLFPTSTSLSPFYLRPPSFLRAPSWFDTGLSEMRLEKDRFSVNLDVKHFSPEELKVKVLGDVIEVHGKHEERQDEHGFISREFHRKYRIPADVDPLTITSSLSSDGVLTVNGPRKQVSGPERTIPITREEKPAVTAAPKK | ~23 | –
3 | human small heat shock protein HspB6, wild type, O14558 1-160 (natural protein) MEIPVPVQPSWLRRASAPLPGLSAPGRLFDQRFGEGLLEAELAALCPTTLAPYYLRAPSVALPVAQVPTDPGHFSVLLDVKHFSPEEIAVKVVGEHVEVHARHEERPDEHGFVAREFHRRYRLPPGVDPAAVTSALSPEGVLSIQAAPASAQAPPPAAAK | – | stoichiometry N [2]: 3 monomers
4 | R27A mutant of human HspB6 (natural protein, UniProt O14558 1-160, looked up, HspB6, human; UniProt O14558; Arg27 of the RLFDQxFG motif replaced by Ala; Expressed from pET23b; also called R27A HspB6; R27A mutant of HspB6) MEIPVPVQPSWLRRASAPLPGLSAPGALFDQRFGEGLLEAELAALCPTTLAPYYLRAPSVALPVAQVPTDPGHFSVLLDVKHFSPEEIAVKVVGEHVEVHARHEERPDEHGFVAREFHRRYRLPPGVDPAAVTSALSPEGVLSIQAAPASAQAPPPAAAK | ~3 | –
5 | human small heat shock protein HspB8, wild type, Q9UJY1 1-196 (natural protein) MADGQMPFSCHYPSRLRRDPFRDSPLSSRLLDDGFGMDPFPDDLTASWPDWALPRLSSAWPGTLRSGMVPRGPTATARFGVPAEGRTPPPFPGEPWKVCVNVHSFKPEELMVKTKDGYVEVSGKHEEKQQEGGIVSKNFTKKIQLPAEVDPVTVFASLSPEGLLIIEAPQVPPYSTFGESSFNNELPQDSQEVTCT | – | stoichiometry N [3]: 2 monomers; stoichiometry N [4]: 2 monomers
6 | R29A mutant of human HspB8 (natural protein, UniProt Q9UJY1 1-196, looked up, HspB8, human; UniProt Q9UJY1; Arg29 of the RLFDQxFG motif replaced by Ala; Expressed from pET23b; also called R29A HspB8; source: E. coli BL21(DE3)pLysS, purified (ammonium sulfate fractionation, HiTrap Phenyl Sepharose, Superdex-200 SEC)) MADGQMPFSCHYPSRLRRDPFRDSPLSSALLDDGFGMDPFPDDLTASWPDWALPRLSSAWPGTLRSGMVPRGPTATARFGVPAEGRTPPPFPGEPWKVCVNVHSFKPEELMVKTKDGYVEVSGKHEEKQQEGGIVSKNFTKKIQLPAEVDPVTVFASLSPEGLLIIEAPQVPPYSTFGESSFNNELPQDSQEVTCT | ~3 | stoichiometry N [5]: 4 monomers
7 | R21A mutant of human HspB4 (natural protein, UniProt P02489 1-173, looked up) MDVTIQHPWFKRTLGPFYPSALFDQFFGEGLFEYDLLPFLSSTISPYYRQSLFRTVLDSGISEVRSDRDKFVIFLDVKHFSPEDLTVKVQDDFVEIHGKHNERQDDHGYISREFHRRYRLPSNVDQSALSCSLSADGMLTFCGPKIQTGLDATHAERAIPVSREEKPTSAPSS | ~30 | –
